Source: patent US8110660B2, “Soluble ENPP4 protein” (Ono Pharmaceutical Co., Ltd., priority 2004, dated 2012)

Legend:
Format in all cases: biochemical
[1] = PDE/PME activity of soluble type ENPP proteins (pNP-PP or bis-pNPP degradation); conditions: 0.2 μg protein, 1 mM pNP-PP (ENPP6 also bis-pNPP), pH 9.6, 37° C., 90 min, FIG. 8
Experimental: (§1) 0.2 μg of the purified soluble type ENPP4 protein was mixed in 90 μL of assay buffer (20 mM HEPES, 140 mM NaCl, 5 mM KCl, 1 mM CaCl2, 1 mM MgCl2, 10 mM Glucose, pH 9.6) and 10 μL of 10 mM p-nitrophenyl phenylphosphonate (pNP-PP, manufactured by Sigma Inc.), and was kept at 37° C. for 90 min and then, absorption of light of 405 nm was measured and thereby, the amount of P-nitrophenol was quantitatively determined and, whether the PDE/PME activity existed or not was examined.
as §1, with “ENPP5” for “ENPP4”, “pNP-PP,” for “p-nitrophenyl phenylphosphonate (pNP-PP, manufactured by Sigma Inc.),”, “p-nitrophenol” for “P-nitrophenol”
as §1, with “ENPP6” for “ENPP4”, “pNP-PP or bis-(p-nitrophenyl)phosphate (bis-pNPP),” for “p-nitrophenyl phenylphosphonate (pNP-PP, manufactured by Sigma Inc.),”, “p-nitrophenol” for “P-nitrophenol”

[2] = NPP/PDE activity of soluble type ENPP proteins (pNP-TMP degradation, 405 nm); conditions: 1 mM pNP-TMP, pH 9.6, 37° C., 2 hours, absorption at 405 nm
Experimental: 400 mL of the culture supernatant of the cells expressing the soluble type human ENPP4 protein was concentrated at 8 times by using Amicon Ultra-15 (fraction molecular weight 10,000, manufactured by Millipore Inc.). The His-Tag-added protein was affinity-purified by using AKTAexplorer 10S (manufactured by Amersham Biosciences Inc.) and His-Trap column (manufactured by Amersham Biosciences Inc.). Samples in the respective purification steps were subjected to SDS-PAGE according to a predetermined method and then the protein was stained by using Simply-Blue-Stain (manufactured by Invitrogen Inc.). […] 40 μL of each of the respective purification steps and purified soluble type human ENPP4-FLAG-His proteins was mixed with 50 μL of assay buffer (20 mM HEPES, 140 mM NaCl, 5 mM KCl, 1 mM CaCl2, 1 mM MgCl2, 10 mM Glucose, pH 9.6, the method of Voltmeter P. et al., Eur. J. Biochem. 270 (2003) 2971-78 was improved) and 10 μL of 10 mM p-nitrophenyl-Thymidine monophosphate (pNP-TMP, Sigma Inc.), and the mixture was kept at 37° C. for 2 hours and then, absorption of light of 405 nm was measured and thereby, p-nitorphenol, which was a degradation product, was measured and, whether the Nucleotide Pyrophosphatase (NPP)/Phospho-Diesterase (PDE) activity existed or not was examined. […]

[3] = Bivalent cation requirement of soluble type ENPP proteins (PDE/PME activity); conditions: MgCl2 and CaCl2 1 mM vs no additive vs EDTA 1 mM, pNP-PP, FIG. 9
Experimental: (§2) 0.2 μg of the purified soluble type ENPP4 protein was mixed in 90 μL of assay buffer (20 mM HEPES, 140 mM NaCl, 5 mM KCl, 10 mM Glucose, pH 9.6), 10 μL of 10 mM pNP-PP, and (1) 1 mM final concentration of MgCl2 and CaCl2, (2) no additive, or (3) 1 mM final concentration of EDTA, and then was kept at 37° C. for 90 min and then, absorption of light of 405 nm was measured and thereby, the increase or decrease of the PDE/PME activity by removing bivalent cations was examined.
as §2, with “ENPP5” for “ENPP4”, “examined. […] It has been thought that a certain cation except for calcium and magnesium ions is bonded to the purified soluble type ENPP5 protein because the activity decreases in the EDTA-adding sample and increases in the no-additive sample. […]” for “examined.”

B1: soluble type ENPP4 protein: extracellular region of human ENPP4 with FLAG tag and 6×His tag at the C terminal, expressed in HEK293T cells, purified (protein, UniProt Q9Y6X5 16-407, looked up)
extracellular domain: FRSDSSSSLPPKLLLVSFDGFRADYLKNYEFPHLQNFIKEGVLVEHVKNVFITKTFPNHYSIVTGLYEESHGIVANSMYDAVTKKHFSDSNDKDPFWWNEAVPIWVTNQLQENRSSAAAMWPGTDVPIHDTISSYFMNYNSSVSFEERLNNITMWLNNSNPPVTFATLYWEEPDASGHKYGPEDKENMSRVLKKIDDLIGDLVQRLKMLGLWENLNVIITSDHGMTQCSQDRLINLDSCIDHSYYTLIDLSPVAAILPKINRTEVYNKLKNCSPHMNVYLKEDIPNRFYYQHNDRIQPIILVADEGWTIVLNESSQKLGDHGYDNSLPSMHPFLAAHGPAFHKGYKHSTINIVDIYPMMCHILGLKPHPNNGTFGHTKCLLVDQWCINLPEA
modifications: extracellular domain C-terminal FLAG and 6xHis tags
notes: extracellular region of human ENPP4 with FLAG tag and 6×His tag at the C terminal, expressed in HEK293T cells, purified
[1]
  PDE/PME activity: has the PDE/PME activity
[2]
  NPP/PDE activity: NPP/PDE activity was detected
[3]
  bivalent cation requirement: does not require bivalent cations
